Experimental data: patent US20160193299A1, “MODIFIED NUCLEOSIDE, NUCLEOTIDE, AND NUCLEIC ACID COMPOSITIONS” (Moderna Therapeutics, Inc., priority 2011, published 2016)

Key:
hematocrit (HCT) = experiment: Example 22 non-human primate study, hematocrit (HCT); format: in vivo, cynomolgus monkey
Experimental: (§1) LNP formulations, shown in Table 31 (above), were administered to non-human primates (NHP) (cynomolgus monkey) (n=2) as intravenous injection (IV). The NHP were administered a single modified mRNA IV dose of 0.5 mg/kg, 0.05 mg/kg or 0.005 mg/kg of G-CSF or EPO in a dose volume of 0.5 mL/kg. The NHPs were bled before dosing with the modified mRNA LNP formulations to determine protein expression in the serum and a baseline complete blood count. After administration with the G-CSF modified mRNA formulation the NHP were bled at 8, 24, 48 and 72 hours to determined protein expression. After administration with the EPO modified mRNA formulation the NHP were bled at 8, 24, 48, 72 hours and 7 days to determined protein expression.

G-CSF [1] = experiment: Example 17 LNP in vivo study IV/IM/SC, serum G-CSF ELISA; details: rats, 0.05 mg/kg
Experimental: (§2) Formulations, listed in Table 31, were characterized by particle size, zeta potential, and encapsulation.
LNP formulations, shown in Table 31 (above), were administered to rats (n=5) intravenously (IV), intramuscularly (IM) or subcutaneously (SC) at a single modified mRNA dose of 0.05 mg/kg. A control group of rats (n=4) was untreated. […] The rats administered EPO modified mRNA intravenously were also bled at 7 days.

mice = experiment: Saline formulation: human G-CSF / EPO in mouse serum; format: in vivo; details: 100 ug in F. buffer, bled 13 hours after injection, G-CSF group
Experimental: The mice were bled at 13 hours after the injection to determine the concentration of the human polypeptide in serum in pg/mL. (G-CSF groups measured human G-CSF in mouse serum and EPO groups measured human EPO in mouse serum).

IFN-alpha = experiment: Example 45 cytokine study in PBMC, IFN-alpha ELISA; format: cell-based, human; details: human PBMC, Lipofectamine 2000
Experimental: The plates were then incubated at 37 C.
Each condition was done in duplicate.
Shown in Tables 69 and 70 are the average from 2 separate PBMC donors of the G-CSF and IFN-alpha production over time as measured by specific ELISA.

human G-CSF = experiment: Example 32B human G-CSF modified RNA lipoplex IM/SC/IV, serum human G-CSF ELISA; format: in vivo, C57/BL6 mice; details: I.M., 100 μg, lipoplexed with 30% RNAIMAX, serum 6 hours
Experimental: 6 hours after administration of a formulation, serum was collected from each mouse to measure the amount of human G-CSF protein in the mouse serum by human G-CSF ELISA and the results are shown in Table 54.

G-CSF [2] = experiment: Examples 21-22 non-human primate in vivo study, serum G-CSF ELISA; set-up: species or system cynomolgus monkey; details: for Average Serum Conentration: G-CSF
Experimental: as §2
LNP formulations, shown in Table 31 (above), were administered to non-human primates (NHP) (cynomolgus monkey) (n=2) as a bolus intravenous injection (IV) over approximately 30 seconds using a hypodermic needle, which may be attached to a syringe/abbocath or butterfly if needed. The NHP were administered a single modified mRNA IV dose of 0.05 mg/kg of EPO or G-CSF or 0.005 mg/kg of EPO in a dose volume of 0.5 mL/kg. The NHPs were bled 5-6 days before dosing with the modified mRNA LNP formulations to determine protein expression in the serum and a baseline complete blood count. After administration with the modified mRNA formulation the NHP were bled at 8, 24, 48 and 72 hours to determined protein expression. At 24 and 72 hours after administration the complete blood count of the NHP was also determined. Protein expression of G-CSF and EPO was determined by ELISA. Urine from the NHPs was collected over the course of the entire experiment and analyzed to evaluate clinical safety. Samples were collected from the NHPs after they were administered with G-CSF or EPO modified mRNA formulations to determine protein expression using ELISA. Clinical chemistry, hematology, urinalysis and cytokines of the non-human primates were also analyzed.
as §1
Samples collected from the NHPs after they were administered with G-CSF or EPO modified mRNA formulations were analyzed by ELISA to determine protein expression. Neutrophil and reticulocyte count was also determined pre-dose, 24 hours, 3 days, 7 days, 14 days and 18 days after administration of the modified G-CSF or EPO formulation.

B1: G-CSF: human G-CSF mRNA SEQ ID NO: 6, polyA ~160 nt, Cap1, fully modified with 5-methylcytosine and pseudouridine (nucleic acid, listed as Homo sapiens)
chain: GGGAAAUAAGAGAGAAAAGAAGAGUAAGAAGAAAUAUAAGAGCCACCAUGGCCGGUCCCGCGACCCAAAGCCCCAUGAAACUUAUGGCCCUGCAGUUGCUGCUUUGGCACUCGGCCCUCUGGACAGUCCAAGAAGCGACUCCUCUCGGACCUGCCUCAUCGUUGCCGCAGUCAUUCCUUUUGAAGUGUCUGGAGCAGGUGCGAAAGAUUCAGGGCGAUGGAGCCGCACUCCAAGAGAAGCUCUGCGCGACAUACAAACUUUGCCAUCCCGAGGAGCUCGUACUGCUCGGGCACAGCUUGGGGAUUCCCUGGGCUCCUCUCUCGUCCUGUCCGUCGCAGGCUUUGCAGUUGGCAGGGUGCCUUUCCCAGCUCCACUCCGGUUUGUUCUUGUAUCAGGGACUGCUGCAAGCCCUUGAGGGAAUCUCGCCAGAAUUGGGCCCGACGCUGGACACGUUGCAGCUCGACGUGGCGGAUUUCGCAACAACCAUCUGGCAGCAGAUGGAGGAACUGGGGAUGGCACCCGCGCUGCAGCCCACGCAGGGGGCAAUGCCGGCCUUUGCGUCCGCGUUUCAGCGCAGGGCGGGUGGAGUCCUCGUAGCGAGCCACCUUCAAUCAUUUUUGGAAGUCUCGUACCGGGUGCUGAGACAUCUUGCGCAGCCGUGAAGCGCUGCCUUCUGCGGGGCUUGCCUUCUGGCCAUGCCCUUCUUCUCUCCCUUGCACCUGUACCUCUUGGUCUUUGAAUAAAGCCUGAGUAGGAAG
modifications: polyA ~160, Cap1, 5mC/pseudouridine modified
HCT (hematocrit (HCT); Female NHP, 0.005 mg/kg, 14/18 days): 0.42 L/L | HCT (hematocrit (HCT); Female NHP, 0.005 mg/kg, 24 hours): 0.42 L/L | HCT (hematocrit (HCT); Female NHP, 0.005 mg/kg, 3 days): 0.41 L/L | HCT (hematocrit (HCT); Female NHP, 0.005 mg/kg, 7 days): 0.42 L/L | HCT (hematocrit (HCT); Female NHP, 0.005 mg/kg, Pre-dose): 0.42 L/L | HCT (hematocrit (HCT); Female NHP, 0.05 mg/kg, 14/18 days): 0.4 L/L | HCT (hematocrit (HCT); Female NHP, 0.05 mg/kg, 24 hours): 0.4 L/L | HCT (hematocrit (HCT); Female NHP, 0.05 mg/kg, 3 days): 0.39 L/L | HCT (hematocrit (HCT); Female NHP, 0.05 mg/kg, 7 days): 0.4 L/L | HCT (hematocrit (HCT); Female NHP, 0.05 mg/kg, Pre-dose): 0.44 L/L | HCT (hematocrit (HCT); Female NHP, 0.5 mg/kg, 14/18 days): 0.37 L/L | HCT (hematocrit (HCT); Female NHP, 0.5 mg/kg, 24 hours): 0.38 L/L | HCT (hematocrit (HCT); Female NHP, 0.5 mg/kg, 3 days): 0.38 L/L | HCT (hematocrit (HCT); Female NHP, 0.5 mg/kg, 7 days): 0.38 L/L | HCT (hematocrit (HCT); Female NHP, 0.5 mg/kg, Pre-dose): 0.43 L/L | HCT (hematocrit (HCT); Male NHP, 0.005 mg/kg, 14/18 days): 0.41 L/L | HCT (hematocrit (HCT); Male NHP, 0.005 mg/kg, 24 hours): 0.4 L/L | HCT (hematocrit (HCT); Male NHP, 0.005 mg/kg, 3 days): 0.4 L/L | HCT (hematocrit (HCT); Male NHP, 0.005 mg/kg, 7 days): 0.39 L/L | HCT (hematocrit (HCT); Male NHP, 0.005 mg/kg, Pre-dose): 0.42 L/L | HCT (hematocrit (HCT); Male NHP, 0.05 mg/kg, 14/18 days): 0.44 L/L | HCT (hematocrit (HCT); Male NHP, 0.05 mg/kg, 24 hours): 0.39 L/L | HCT (hematocrit (HCT); Male NHP, 0.05 mg/kg, 3 days): 0.41 L/L | HCT (hematocrit (HCT); Male NHP, 0.05 mg/kg, 7 days): 0.42 L/L | HCT (hematocrit (HCT); Male NHP, 0.05 mg/kg, Pre-dose): 0.44 L/L | HCT (hematocrit (HCT); Male NHP, 0.5 mg/kg, 14/18 days): 0.34 L/L | HCT (hematocrit (HCT); Male NHP, 0.5 mg/kg, 24 hours): 0.37 L/L | HCT (hematocrit (HCT); Male NHP, 0.5 mg/kg, 3 days): 0.39 L/L | HCT (hematocrit (HCT); Male NHP, 0.5 mg/kg, 7 days): 0.39 L/L | HCT (hematocrit (HCT); Male NHP, 0.5 mg/kg, Pre-dose): 0.46 L/L | G-CSF Serum Concentration (G-CSF [1]; IM, 2 hours): 1620.4 pg/mL | G-CSF Serum Concentration (G-CSF [1]; IM, 8 hours): 7910.4 pg/mL | G-CSF Serum Concentration (G-CSF [1]; IM, 24 hours): 893.3 pg/mL | G-CSF Serum Concentration (G-CSF [1]; IM, 48 hours): OSC | G-CSF Serum Concentration (G-CSF [1]; IM, 5 days): OSC | G-CSF detectable to (G-CSF [1]; IV): 7 days | G-CSF Serum Concentration (G-CSF [1]; IV, 2 hours): 31,331.9 pg/ml | G-CSF Serum Concentration (G-CSF [1]; IV, 8 hours): 70,532.4 pg/ml | G-CSF Serum Concentration (G-CSF [1]; IV, 24 hours): 5,738.6 pg/ml | G-CSF Serum Concentration (G-CSF [1]; IV, 48 hours): 233.8 pg/mL | G-CSF Serum Concentration (G-CSF [1]; IV, 5 days): 60.4 pg/mL | G-CSF Serum Concentration (G-CSF [1]; SC, 2 hours): 80.3 pg/mL | G-CSF Serum Concentration (G-CSF [1]; SC, 8 hours): 164.2 pg/mL | G-CSF Serum Concentration (G-CSF [1]; SC, 24 hours): OSC | G-CSF Serum Concentration (G-CSF [1]; SC, 48 hours): OSC | G-CSF Serum Concentration (G-CSF [1]; SC, 5 days): OSC | G-CSF detectable to at least (G-CSF [1]; subcutaneous and intramuscular): at least 8 hours | Average Protein Product, serum (human G-CSF) (mice): 45 pg/mL | innate immune recognition, cytokine production (IFN-alpha and others) (IFN-alpha): induced IFN-alpha, TNF-alpha and IP10 | G-CSF (human G-CSF): 85.6 pg/mL | Female NHP Serum G-CSF Concentration (G-CSF [2]; IV 0.005 mg/kg, 8 hours): 559 pg/mL | Male NHP Serum G-CSF Concentration (G-CSF [2]; IV 0.005 mg/kg, 8 hours): 700 pg/mL | Female NHP Serum G-CSF Concentration (G-CSF [2]; IV 0.005 mg/kg, 24 hours): 155 pg/mL | Male NHP Serum G-CSF Concentration (G-CSF [2]; IV 0.005 mg/kg, 24 hours): <39 pg/mL | Female NHP Serum G-CSF Concentration (G-CSF [2]; IV 0.005 mg/kg, 48 hours): <39 pg/mL | Male NHP Serum G-CSF Concentration (G-CSF [2]; IV 0.005 mg/kg, 48 hours): <39 pg/mL | Female NHP Serum G-CSF Concentration (G-CSF [2]; IV 0.005 mg/kg, 72 hours): <39 pg/mL | Male NHP Serum G-CSF Concentration (G-CSF [2]; IV 0.005 mg/kg, 72 hours): <39 pg/mL | Female NHP Serum G-CSF Concentration (G-CSF [2]; IV 0.005 mg/kg, Pre-bleed): <39 pg/mL | Male NHP Serum G-CSF Concentration (G-CSF [2]; IV 0.005 mg/kg, Pre-bleed): <39 pg/mL | Female NHP Serum G-CSF Concentration (G-CSF [2]; IV 0.05 mg/kg, 24 hours): 722 pg/mL | Male NHP Serum G-CSF Concentration (G-CSF [2]; IV 0.05 mg/kg, 24 hours): 307 pg/mL | Female NHP Serum G-CSF Concentration (G-CSF [2]; IV 0.5 mg/kg, 8 hours): 43,525 pg/ml | Male NHP Serum G-CSF Concentration (G-CSF [2]; IV 0.5 mg/kg, 8 hours): 43,594 pg/ml | Female NHP Serum G-CSF Concentration (G-CSF [2]; IV 0.5 mg/kg, 24 hours): 11,374 pg/ml | Male NHP Serum G-CSF Concentration (G-CSF [2]; IV 0.5 mg/kg, 24 hours): 3,628 pg/ml | Female NHP Serum G-CSF Concentration (G-CSF [2]; IV 0.5 mg/kg, 48 hours): 1,100 pg/ml | Male NHP Serum G-CSF Concentration (G-CSF [2]; IV 0.5 mg/kg, 48 hours): 833 pg/mL | Female NHP Serum G-CSF Concentration (G-CSF [2]; IV 0.5 mg/kg, 72 hours): <39 pg/mL | Male NHP Serum G-CSF Concentration (G-CSF [2]; IV 0.5 mg/kg, 72 hours): 306 pg/mL | Female NHP Serum G-CSF Concentration (G-CSF [2]; IV 0.5 mg/kg, Pre-bleed): <39 pg/mL | Male NHP Serum G-CSF Concentration (G-CSF [2]; IV 0.5 mg/kg, Pre-bleed): <39 pg/mL | Average Serum Conentration (G-CSF [2]; NHP, IV 0.05 mg/kg, 8 hours): 2,506 pg/ml | Average Serum Conentration (G-CSF [2]; NHP, IV 0.05 mg/kg, 24 hours): 515 pg/mL | Average Serum Conentration (G-CSF [2]; NHP, IV 0.05 mg/kg, 48 hours): 0 pg/mL | Average Serum Conentration (G-CSF [2]; NHP, IV 0.05 mg/kg, 72 hours): 0 pg/mL | Average Serum Conentration (G-CSF [2]; NHP, IV 0.05 mg/kg, Pre-bleed): 0 pg/mL | G-CSF protein expression seen out to (G-CSF [2]; NHP, IV 0.05 mg/kg): 24 h | G-CSF protein expression not detected beyond (G-CSF [2]; NHP, IV 0.5, 0.05, 0.005 mg/kg (Table 36)): ≤ 72 h
